B1: 1789 Fab (Fab, V domains shown)
VH: EVQLVESGGGLVQPGGSLRLSCAASGFNVSYSSIHWVRQAPGKGLEWVASISSSSGYTYYADSVKGRFTISADTSKNTAYLQMNSLRAEDTAVYYCARNYWGWYPFYYFAFDYWGQGTLVTV
VL: DIQMTQSPSSLSASVGDRVTITCRASQSVSSAVAWYQQKPGKAPKLLIYSASSLYSGVPSRFSGSRSGTDFTLTISSLQPEDFATYYCQQGWDYPITFGQGTKVEIKR
B2: 1789 IgG (antibody, V domains shown)
VH: EVQLVESGGGLVQPGGSLRLSCAASGFNVSYSSIHWVRQAPGKGLEWVASISSSSGYTYYADSVKGRFTISADTSKNTAYLQMNSLRAEDTAVYYCARNYWGWYPFYYFAFDYWGQGTLVTVSS
VL: B1 VL

Assays:
[1] = target: T1, Full-length murine NT5E (recombinant) (murine, UniProt Q61503 29-552); assay: SPR, His-captured NT5E, 1 mM ATP; SPR, 1 mM ATP
T1 construct: also called mNT5E
T1 sequence: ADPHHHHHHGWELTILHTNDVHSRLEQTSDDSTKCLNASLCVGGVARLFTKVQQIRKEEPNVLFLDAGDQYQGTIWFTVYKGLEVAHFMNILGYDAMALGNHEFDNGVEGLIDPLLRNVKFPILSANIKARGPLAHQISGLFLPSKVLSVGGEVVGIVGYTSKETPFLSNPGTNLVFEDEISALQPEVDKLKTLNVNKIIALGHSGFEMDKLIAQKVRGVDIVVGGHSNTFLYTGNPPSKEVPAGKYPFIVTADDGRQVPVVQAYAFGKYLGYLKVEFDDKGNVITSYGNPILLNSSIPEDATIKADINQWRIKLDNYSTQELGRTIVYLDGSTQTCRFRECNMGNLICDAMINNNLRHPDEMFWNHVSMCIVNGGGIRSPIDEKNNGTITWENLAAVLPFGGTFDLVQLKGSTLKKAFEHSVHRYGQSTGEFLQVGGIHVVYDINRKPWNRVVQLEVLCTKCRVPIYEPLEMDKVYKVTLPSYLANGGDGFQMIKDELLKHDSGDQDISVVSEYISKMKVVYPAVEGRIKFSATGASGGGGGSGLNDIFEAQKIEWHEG
Method: All SPR experiments were performed at 25° C. using MASS-1 (Bruker) instrument. hNT5E, mNT5E and cNT5E were immobilized onto a nitrilotriacetic acid (NTA) sensor chip via His-tag. For kinetic experiments, after ligand immobilization, 2-fold serial dilutions of the Fabs were injected. After double-reference subtraction data were analyzed with BiaEvaluation (GE Healthcare) or Sierra Analyser (Bruker) software. The experiments were carried in buffers in presence and absence of 1 mM ATP to compare the kinetic parameters of the Fabs binding to closed and open form of NT5E.

[2] = target: T2, hNT5EDF (substrate binding knock-out variant of hNT5E) (human); assay: DSF thermal shift, 1.5-fold molar excess of Fab, no ATP (hNT5EDF alone 44° C.)
Method: (§1) With 1 mM ATP alone (red dashed line), the TM shifts from one transition at 49° C. to two transitions at TM 59° C. and 64° C. […] Thermal shift assays of substrate binding knock-out variants hNT5EDF (FIG. 2B) and hNT5EFF (FIG. 2C) show no change in thermal stability with the addition of ATP.
(§2) Thermal stability of samples was analyzed by differential scanning fluorimetry (DSF) using a real-time PCR instrument (Bio-Rad CFX384). Protein samples were mixed with 4× Sypro Orange at a final 4 μM concentration. For target/Fab complexes, 1.5-fold molar excess of Fab was used. All reactions were performed in triplicates in a 384-well plate. Thermal melting curves were monitored from 25° C. to 95° C. in steps of 0.5° C./30 s. Wavelengths of 490 and 575 nm were used for excitation and emission, respectively. The melting temperatures were inferred from the first derivative of the melting curves from the mean of triplicate runs using CFX software provided by the manufacturer.

[3] = target: T2, hNT5EDF (substrate binding knock-out …); assay: DSF thermal shift, 1.5-fold molar excess of Fab, 1 mM ATP (hNT5EDF alone 46° C.)
Method: as §1, §2

[4] = target: T3, human NT5E expressed on MDA-MB-231 cells (human, UniProt P21589 27-549); assay: flow cytometry on MDA-MB-231 cells, PBS without ATP; -ATP (PBS alone), MDA-MB-231 cells
T3 construct: whole, on cells; also called NT5E-expressing MDA-MB-231 cells; CD73
T3 sequence (looked up): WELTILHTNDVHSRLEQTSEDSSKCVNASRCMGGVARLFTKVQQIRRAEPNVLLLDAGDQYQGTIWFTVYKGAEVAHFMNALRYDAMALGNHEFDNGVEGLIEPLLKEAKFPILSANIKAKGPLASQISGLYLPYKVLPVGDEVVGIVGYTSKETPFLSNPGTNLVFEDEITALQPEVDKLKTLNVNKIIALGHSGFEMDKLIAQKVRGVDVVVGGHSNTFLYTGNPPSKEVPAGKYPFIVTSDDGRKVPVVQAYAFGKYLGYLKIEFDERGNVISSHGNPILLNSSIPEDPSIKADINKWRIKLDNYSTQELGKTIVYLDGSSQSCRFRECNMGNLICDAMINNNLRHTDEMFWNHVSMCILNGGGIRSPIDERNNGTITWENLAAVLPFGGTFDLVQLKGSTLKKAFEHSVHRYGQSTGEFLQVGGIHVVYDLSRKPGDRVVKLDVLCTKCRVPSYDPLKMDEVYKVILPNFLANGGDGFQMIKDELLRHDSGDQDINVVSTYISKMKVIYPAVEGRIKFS
Method: Flow cytometry analysis of antibodies binding to human NT5E expressed on MDA-MB-231 cells in ATP-free condition (black) or in 1 mM ATP (red). Top panel: (left) 1780 Fab and (right) 1780 IgG titrations. […] Binding was measured at the indicated range of antibody concentrations and is expressed as mean±st. dev of median fluorescence intensity (MFI) of 1-2 replicates. Data were analyzed using OriginLab, and EC₅₀ values are shown next to the fitted curves.
Human MDA-MB-231 cells and murine 4T1 cells were grown to 90% confluency, detached with 5 mM EDTA for 15 min at 37° C. and then resuspended in 37° C. lx PBS (#10010031, Gibco) supplemented with 1% FBS and 1OpM ZnCl2. Separate working buffers (WB) of PBS and 1% FBS with or without fixed nucleotide concentrations were used throughout all washing steps to maintain constant condition. In 96-well plates (#3799, Costar), 0.2×10⁶ cells were added per well. The plates were spun at 500×g for 5 min and the supernatant was removed. Anti-NT5E antibodies were diluted to the desired concentration in 100 μL WB, added to the cells and the plates were incubated for 20 min at 37° C. Plates were spun and cells were washed twice with WB then spun a second time. […] Samples were analyzed by flow cytometry using CytoFLEX (Beckman Coulter) and mean fluorescence intensity (MFI) data was extracted using FlowJo software. […]

Binder	Kd [1] [nM]	koff [1] [s⁻¹]	kon [1] [M⁻¹ s⁻¹]	TM of NT5E in the presence of the Fab [2] [° C.]	TM of NT5E in the presence of the Fab [3] [° C.]	EC50 [4] [nM]
B1	160	0.014	85000	48	46	
B2						124
